Assay results reported in patent US20190211097A1 (ADVENTIST HEALTH SYSTEM SUNBELT, published 2019).

T1: human CD32a (FcgammaRIIa) on washed human platelets (human, UniProt P12318 34-317)
T1 sequence: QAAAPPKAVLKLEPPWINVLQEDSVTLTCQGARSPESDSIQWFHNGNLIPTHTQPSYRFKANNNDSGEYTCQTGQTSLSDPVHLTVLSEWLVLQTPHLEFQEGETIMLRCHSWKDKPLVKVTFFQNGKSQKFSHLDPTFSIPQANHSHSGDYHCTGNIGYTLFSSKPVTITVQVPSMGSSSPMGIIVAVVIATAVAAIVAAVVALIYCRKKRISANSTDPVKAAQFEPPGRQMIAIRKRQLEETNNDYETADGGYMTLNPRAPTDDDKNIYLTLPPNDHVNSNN

B1: effector-deficient humanized IV.3.2 IgG1 E269R mAb (antibody)
heavy: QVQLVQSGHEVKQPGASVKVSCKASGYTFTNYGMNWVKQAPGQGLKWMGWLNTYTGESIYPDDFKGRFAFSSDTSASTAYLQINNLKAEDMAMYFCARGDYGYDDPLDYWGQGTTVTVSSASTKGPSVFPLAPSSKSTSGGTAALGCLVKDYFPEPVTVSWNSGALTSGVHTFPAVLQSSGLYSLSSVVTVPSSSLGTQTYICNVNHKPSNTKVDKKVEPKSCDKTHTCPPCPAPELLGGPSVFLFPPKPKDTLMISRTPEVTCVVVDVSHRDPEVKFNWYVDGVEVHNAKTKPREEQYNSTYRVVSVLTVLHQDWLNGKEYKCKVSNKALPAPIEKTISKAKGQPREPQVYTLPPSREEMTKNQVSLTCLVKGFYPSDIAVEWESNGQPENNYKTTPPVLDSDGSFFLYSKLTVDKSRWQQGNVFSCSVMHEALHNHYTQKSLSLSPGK
light: DIVMTQTPLSLPVTPGEPASISCRSSKSLLHTNGNTYLHWYLQKPGQSPQLLIYRMSVLASGVPDRFSGSGSGTDFTLKISRVEAEDVGVYYCMQHLEYPLTFGGGTKVEIKRTVAAPSVFIFPPSDEQLKSGTASVVCLLNNFYPREAKVQWKVDNALQSGNSQESVTEQDSKDSTYSLSSTLTLSKADYEKHKVYACEVTHQGLSSPVTKSFNRGEC
B2: effector-deficient humanized AT-10 IgG1 E269R mAb (antibody)
heavy: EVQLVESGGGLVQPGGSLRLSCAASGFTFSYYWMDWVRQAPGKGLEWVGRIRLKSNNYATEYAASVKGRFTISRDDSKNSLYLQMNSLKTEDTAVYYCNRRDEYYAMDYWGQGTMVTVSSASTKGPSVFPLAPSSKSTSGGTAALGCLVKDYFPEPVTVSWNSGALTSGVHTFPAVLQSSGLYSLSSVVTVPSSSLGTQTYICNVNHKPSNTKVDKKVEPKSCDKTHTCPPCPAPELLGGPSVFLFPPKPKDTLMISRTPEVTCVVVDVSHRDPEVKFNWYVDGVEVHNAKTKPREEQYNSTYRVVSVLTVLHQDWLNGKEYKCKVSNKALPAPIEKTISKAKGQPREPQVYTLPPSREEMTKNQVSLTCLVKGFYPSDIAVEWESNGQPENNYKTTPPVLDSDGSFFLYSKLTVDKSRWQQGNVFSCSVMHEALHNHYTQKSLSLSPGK
light: EIVLTQSPATLSLSPGERATLSCRASESVDNFGISFLAWYQQKPGQAPRLLIYGASNRATGIPARFSGSGSGTDFTLTISSLEPEDFAVYYCQQSKEVPWTFGQGTKVEIKRTVAAPSVFIFPPSDEQLKSGTASVVCLLNNFYPREAKVQWKVDNALQSGNSQESVTEQDSKDSTYSLSSTLTLSKADYEKHKVYACEVTHQGLSSPVTKSFNRGEC
B3: effector-deficient chimeric IV.3 human IgG2 N297A mAb (antibody)
heavy: QIQLVQSGPELKKPGETVKISCKASGYTFTNYGMNWVKQAPGKGLKWMGWLNTYTGESIYPDDFKGRFAFSSETSASTAYLQINNLKNEDMATYFCARGDYGYDDPLDYWGQGTSVTVSSASTKGPSVFPLAPCSRSTSESTAALGCLVKDYFPEPVTVSWNSGALTSGVHTFPAVLQSSGLYSLSSVVTVPSSNFGTQTYTCNVDHKPSNTKVDKTVERKCCVECPPCPAPPVAGPSVFLFPPKPKDTLMISRTPEVTCVVVDVSHEDPEVQFNWYVDGVEVHNAKTKPREEQFASTFRVVSVLTVVHQDWLNGKEYKCKVSNKGLPAPIEKTISKTKGQPREPQVYTLPPSREEMTKNQVSLTCLVKGFYPSDIAVEWESNGQPENNYKTTPPMLDSDGSFFLYSKLTVDKSRWQQGNVFSCSVMHEALHNHYTQKSLSLSPGK
light: DIVMTQAAPSVPVTPGESVSISCRSSKSLLHTNGNTYLHWFLQRPGQSPQLLIYRMSVLASGVPDRFSGSGSGTAFTLSISRVEAEDVGVFYCMQHLEYPLTFGAGTKLELKRTVAAPSVFIFPPSDEQLKSGTASVVCLLNNFYPREAKVQWKVDNALQSGNSQESVTEQDSKDSTYSLSSTLTLSKADYEKHKVYACEVTHQGLSSPVTKSFNRGEC

Target: T1, human CD32a (FcgammaRIIa) on washed …
Test: cell-based or functional assay

| Binder | mAb concentration that inhibited 500 nM M90+CD40L IC-induced platelet aggregation [nM] | platelet aggregation by the combination of chimeric AT-10 hIgG1 E269R, chimeric IV.3 hIgG2 N297A and MDE-8 IgG1 E269R, 300 nM each [nM] |
| --- | --- | --- |
| B1 | 3 |  |
| B2 | 15 |  |
| B3 |  | 300 |
